The values below are quoted from earlier work in paper PMC8865373.

Broadly, the Kd is the free concentration of one partner at which half of the binding sites on the other are occupied at equilibrium, for simple one-to-one binding.

The target in data set [1] is CBP TAZ2 TAZ2 (UniProt P45481).
Data set [2] deals with CBP TAZ2 TAZ2 (UniProt P45481). This is another data set of the same source.

Like-named read-outs stand apart in the source and are kept apart here.

Chain of CBP TAZ2 TAZ2 (P45481 1764-1855): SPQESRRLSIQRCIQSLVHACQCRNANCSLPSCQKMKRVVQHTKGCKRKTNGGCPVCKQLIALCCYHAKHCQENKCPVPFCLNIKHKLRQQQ
Chain of HPV E7 (P03129 whole entry): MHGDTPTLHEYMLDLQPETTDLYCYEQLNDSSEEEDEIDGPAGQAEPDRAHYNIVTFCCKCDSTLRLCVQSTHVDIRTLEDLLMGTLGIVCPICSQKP
Chain of p53 AD1 AD1 (P04637 13-37): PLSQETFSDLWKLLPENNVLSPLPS

On to HPV E7 (from UniProt P03129), for which the equilibrium dissociation constant (Kd) in the data set with CBP TAZ2 TAZ2 [1] is 0.022 µM.

For p53 AD1 AD1 (from UniProt P04637), the Kd in the data set with CBP TAZ2 TAZ2 [2] was 24 µM.
